From patent publication EP4644549A1, “ANTIMICROBIAL PEPTIDE AND METHOD FOR PRODUCING SAME” (Sumitomo Chemical Company, Limited, priority 2022, dated 2025)
Ends that are not written are not given here.

Columns and labels:
[1] = system: Lactobacillus sakei (NBRC15893); assay: Wide pH-range stability test (spot-on-lawn antimicrobial activity after incubation in buffer); assay type: physicochemical; parameters: key: A: Good activity; B: Slight influence on activity; C: No activity; details: ten times the lowest concentration of Table 3, A = spot diameter 80% or more of control in water
Description: Antimicrobial activity of the antimicrobial peptide was evaluated by a spot-on-lawn method that involved spotting 10 µL of a test liquid 13 on the test bacteria (lawn) (on a soft agar medium 11) (Fig. 1). As the test bacteria, Lactobacillus sakei (NBRC15893) was used. The specific procedure is as follows. Firstly, the test bacteria that were cultured overnight were mixed and diluted with Lactobacilli AOAC agar (soft agar medium 11) in a density of 4×10^7 CFU/mL, and was spread over an MRS plate containing 2% agar (an agar medium 12). Test liquid 13 was spotted thereon, and incubated overnight at 30°C, followed by evaluation of the size of a growth inhibition circle 14 (Fig. 1). It can be determined that the larger the growth inhibition circle, the higher the antimicrobial activity. The fraction with highest antimicrobial activity as determined in the antimicrobial activity test was regarded as a purified active fraction and used in Experiment 4 and Experiment 5 described below. For the polypeptides as set forth in SEQ ID NOs: 1 to 5, 13, and 14 in Table 3, evaluation was carried out to see if they had antimicrobial activity over a wide range of pH. As a Comparative Example, a commercially available nisin A (manufactured by Sigma-Aldrich) was used. Firstly, each peptide was dissolved in the following buffer to prepare a solution of a concentration ten times the lowest concentration specified in Table 3: sodium phosphate buffer (50 mM, pH4), 1x phosphate buffer saline (pH7.4), ammonium chloride-ammonia buffer (50 mM, pH10.0). […] Antimicrobial activity was evaluated based on the size of the spot (the size of the growth inhibition circle). When the size of the spot was equivalent to that of the control (when the diameter of the spot was 80% or more of the control), it was rated as A, and when the size was relatively small but antimicrobial activity was still detected, it was rated as B. When the growth inhibition circle was not observed, it was rated as C. It can be determined that the peptides rated as A or B are stable at the test pHs. […]

[2] = system: Lactobacillus sakei (NBRC15893); assay: Thermal stability test (spot-on-lawn antimicrobial activity after heat treatment); assay type: physicochemical; parameters: key: A: Good activity; B: Slight influence on activity; C: No activity; details: in water, ten times the lowest concentration of Table 3, A = spot diameter 80% or more of control with no heat treatment
Description: Antimicrobial activity of the antimicrobial peptide was evaluated by a spot-on-lawn method that involved spotting 10 µL of a test liquid 13 on the test bacteria (lawn) (on a soft agar medium 11) (Fig. 1). As the test bacteria, Lactobacillus sakei (NBRC15893) was used. The specific procedure is as follows. Firstly, the test bacteria that were cultured overnight were mixed and diluted with Lactobacilli AOAC agar (soft agar medium 11) in a density of 4×10^7 CFU/mL, and was spread over an MRS plate containing 2% agar (an agar medium 12). Test liquid 13 was spotted thereon, and incubated overnight at 30°C, followed by evaluation of the size of a growth inhibition circle 14 (Fig. 1). It can be determined that the larger the growth inhibition circle, the higher the antimicrobial activity. The fraction with highest antimicrobial activity as determined in the antimicrobial activity test was regarded as a purified active fraction and used in Experiment 4 and Experiment 5 described below. For the polypeptides as set forth in SEQ ID NOs: 1 to 5, 13, and 14 in Table 3, evaluation was carried out to see if they had antimicrobial activity after heat treatment. As a Comparative Example, a commercially available nisin A (manufactured by Sigma-Aldrich) was used. Firstly, each peptide was dissolved in water to prepare a solution of a concentration ten times the lowest concentration specified in Table 3. The test solution thus prepared was subjected to heat treatment at 80°C for 30 minutes, or at 100°C for 30 minutes, or at 121°C for 15 minutes. […] Antimicrobial activity was evaluated based on the size of the spot (the size of the growth inhibition circle); when the size of the spot was equivalent to that of the control (when the diameter of the spot was 80% or more of the control), it was rated as A, and when the size was relatively small but activity was still detected, it was rated as B. When the spot was not observed, it was rated as C. It can be determined that the peptides rated as A or B are stable at the test temperatures. […]

Escherichia coli = assay: Antimicrobial activity test in liquid culture (growth by OD630); assay type: cell-based; parameters: key: +: Antimicrobial activity observed; -: No antimicrobial activity observed; details: Test conc. 25 µM; culturing 24 to 48 hours
Description: (§1) As a Comparative Example, a commercially available nisin A (manufactured by Sigma-Aldrich) was used. Firstly, each peptide was dissolved in MRS medium to prepare a solution of a concentration of 20 µM to 1000 µM. From the resultant, 10 µl was taken and mixed with various test bacteria and 90 µl of medium intended for culturing the test bacteria, followed by culturing for 24 hours to 48 hours. After culturing, OD630 was measured to check the number of bacteria. When OD630 increased or turbidity was visually observed as compared to the culture liquid before culturing, it can be determined that the test bacteria had grown. […] In the "SEQ ID NO or substance name of peptide" section in Table 5, each of "SEQ ID NO: 3 & SEQ ID NO: 4" and "SEQ ID NO: 13 & SEQ ID NO: 14" means that a combination of the two types of peptides were used in equimolar amounts. The results in Table 5 indicate that the polypeptides as set forth in SEQ ID NOs: 1 to 5, 13, and 14 were effective against gram-positive bacteria and some of these polypeptides were effective against gram-negative bacteria such as E. coli and fungi such as C. albicans.

Streptococcus uberis = assay: as above; assay type: cell-based; parameters: key: +: Antimicrobial activity observed; -: No antimicrobial activity observed; details: Test conc. 25 µM; culturing 24 to 48 hours
Description: as §1

Lactobacillus sakei = assay: as above; assay type: cell-based; parameters: key: +: Antimicrobial activity observed; -: No antimicrobial activity observed; details: Test conc. 25 µM; culturing 24 to 48 hours
Description: as §1

Staphylococcus aureus = assay: as above; assay type: cell-based; parameters: key: +: Antimicrobial activity observed; -: No antimicrobial activity observed; details: Test conc. 25 µM; culturing 24 to 48 hours
Description: as §1

Candida albicans = assay: as above; assay type: cell-based; parameters: key: +: Antimicrobial activity observed; -: No antimicrobial activity observed; details: Test conc. 25 µM; culturing 24 to 48 hours
Description: as §1

nisin A (ITSISLCTPGCKTGALMGCNMKTATCHCSIHVSK; thioether (positions not given here); not fully specified (some residues, bridges); also: lantibiotic: thioether rings and dehydro residues not placed; UniProt P13068 24-57, looked up) [antimicrobial peptide produced by Lactococcus lactis]
pH Stability pH7 ([1]; 1x phosphate buffer saline (pH7.4), 27°C for 24 hours): C
pH Stability pH10 ([1]; ammonium chloride-ammonia buffer 50 mM pH10.0, 27°C for 24 hours): C
pH Stability pH4 ([1]; sodium phosphate buffer 50 mM pH4, 27°C for 24 hours): A
Thermostability 80°C ([2]; 80°C for 30 minutes): C
Thermostability 100°C ([2]; 100°C for 30 minutes): C
Thermostability 121°C ([2]; 121°C for 15 minutes (autoclave)): C
Antimicrobial activity, test bacteria Escherichia coli (Escherichia coli): -
Antimicrobial activity, test bacteria Streptococcus uberis (Streptococcus uberis): +
Antimicrobial activity, test bacteria Lactobacillus sakei (Lactobacillus sakei): +
Antimicrobial activity, test bacteria Staphylococcus aureus (Staphylococcus aureus): +
Antimicrobial activity, test bacteria Candida albicans (Candida albicans): -
